Laboratory results reported in IntAct's records for PubMed 32017888.

B1: Ras-related protein Rab-8A (Homo sapiens), P61006 (parent)
chain: MAKTYDYLFKLLLIGDSGVGKTCVLFRFSEDAFNSTFISTIGIDFKIRTIELDGKRIKLQIWDTAGQERFRTITTAYYRGAMGIMLVYDITNEKSFDNIRNWIRNIEEHASADVEKMILGNKCDVNDKRQVSKERGEKLALDYGIKFMETSAKANINVENAFFTLARDIKAKMDKKLEGNSPQGSNQGVKITPDQQKRSSFFRCVLL
partner: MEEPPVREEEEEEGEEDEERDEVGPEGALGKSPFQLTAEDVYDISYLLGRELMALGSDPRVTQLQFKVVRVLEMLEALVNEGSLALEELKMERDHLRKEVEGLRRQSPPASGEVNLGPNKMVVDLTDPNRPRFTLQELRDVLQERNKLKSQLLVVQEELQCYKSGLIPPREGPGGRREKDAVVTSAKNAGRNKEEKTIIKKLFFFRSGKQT

Variants of: B1
Conditions: with ripl2_human RILPL2, Q969X0

Variant | effect of a mutation on the interaction
T22N | disrupting interaction strength

Variants of: B1
Conditions: with ripl2_human RILPL2, Q969X0
Remark: another data set of the same source

Variant | effect of a mutation on the interaction
D44K | disrupting interaction strength
D44N | disrupting interaction strength
K58Q | disrupting interaction strength
K58E | disrupting interaction strength
K58A | with no effect
